“Also recorded” adds a separate entry of the source.
T1: CCX CKR (Homo sapiens, UniProt Q9NPB9)
T1 construct: Full length CCX CKR expression constructs were made in pIRESpuro expression vector; expressed in transfected cells
T1 sequence (Q9NPB9 1-350): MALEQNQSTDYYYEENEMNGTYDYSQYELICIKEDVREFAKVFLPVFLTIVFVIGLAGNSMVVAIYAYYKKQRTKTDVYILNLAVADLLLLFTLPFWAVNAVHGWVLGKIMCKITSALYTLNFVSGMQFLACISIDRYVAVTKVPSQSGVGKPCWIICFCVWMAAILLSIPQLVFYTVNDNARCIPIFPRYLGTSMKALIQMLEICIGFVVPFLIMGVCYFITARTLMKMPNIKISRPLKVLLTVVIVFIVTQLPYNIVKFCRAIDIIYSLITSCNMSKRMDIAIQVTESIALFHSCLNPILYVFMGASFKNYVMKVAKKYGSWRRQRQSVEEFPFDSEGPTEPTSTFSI


Legend:
CCX CKR [1] = target: T1, CCX CKR; experiment: Ligand binding fingerprint: displacement of 125I-ELC from CCX CKR stable transfectants by cold chemokines; settings: cold competitor 200 nM; human and murine ELC, SLC, TECK; comparable with 125I-TECK
Text: (§1) In one embodiment, binding is detected as described by Dairaghi et al., 1997, J. Biol. Chem. 272:28206-209 (incorporated by reference in its entirety for all purposes) substituting CCX CKR transfectants for the CCR3 transfectants). In one embodiment, binding is detected using the filter based technique described by Dairaghi et al., 1999, J. Biol. Chem. 274:2156 (incorporated by reference in its entirety for all purposes), e.g., as shown in FIG. 4. Briefly, this technology employs expanded, efficiency-maximized radioligand binding utilizing filtration protocols. In these assays, 1×10^5 CCXCKR-293 HEK cells are incubated with […] (MlP3beta) (final concentration of ˜0.05 nM) in the presence of unlabeled chemokine for 3 h at 4° C. in 25 mM HEPES, 140 mM NaCl, 1 mM CaCl2, 5 mM MgCl2, and 0.2% bovine serum albumin, adjusted to pH 7.1. Reactions were aspirated onto PEI-treated GF/B glass filters using a cell harvester (Packard). Filters are washed twice (25 mM HEPES, 500 mM NaCl, 1 mM CaCl25 mM MgCl2, adjusted to pH 7.1) and scintillant (e.g., MicroScint 20; 50 μl) is added to dried filters and counted (e.g., using a Packard Topcount scintillation counter). The competition dose-response curves is analyzed by standard methods to determine IC50 values (e.g., using GraphPad Prism software (San Diego, Calif.)). Additionally, a Scatchard transformation can be used to estimate the receptor sites per cell (e.g., using WaveMetrics Igor software (Lake Oswego, Oreg.)).
In order to rapidly and thoroughly define a given chemokine receptor's ligand binding fingerprint, we have established an approach to comprehensively profile chemokine receptors using a large array of purified chemokines and chemokine variants. We used this approach to confirm independently the interaction of ELC and other chemokines with CCX CKR. Employing radioligand binding of ^125I-labeled-ELC or ^125I-TECK to CCX CKR stable transfectants, chemokine specificity for the new receptor was determined.
(§2) Binding analysis was carried out using efficiency-maximized radioligand binding utilizing filtration protocols designated “Displace Max” (Dairaghi et al., 1999, J Biol. Chem. 274:21569). In these assays, DisplaceMax employed the simultaneous interrogation of CCX CKR transfectants by >80 distinct purified chemokines in the ability to displace radiolabeled ELC or TECK, using the protocol described (Dairaghi et al., 1999, J Biol. Chem. 274:21569).

CCX CKR [2] = target: T1, CCX CKR; experiment: Ligand induced internalization of CCX CKR in 293 F-CCR10 cells (FACS, anti-Flag); type: cell-based; settings: 100 nM chemokine, 37° C., 15 or 45 minutes
Method: 293 cells transfected with the Flag-CCX CKR fusion plasmid (i.e., “293 F-CCR10 cells;” see Example 3) were incubated at 37° C. with varying concentrations of chemokines (ELC, SLC, TECK, murine CTACK and MCP4) for 15 or 45 minutes. Following incubation, the cells were washed and fixed with 3% paraformaldehyde for 15 minutes on ice. The cells were stained with anti-Flag M1 antibody, followed by a PE-conjugated anti-mouse secondary antibody. FACS analysis were then carried out to determine surface expression of the receptor.
Results: A reduction in antibody binding in the presence of ligand is an indication of ligand-induced internalization of the receptor.

CCX CKR [3] = target: T1, CCX CKR; experiment: Preliminary chemotaxis analysis of CCX CKR transfectants; type: cell-based; settings: preliminary chemotaxis analyses, not shown
CCX CKR [4] = target: T1, CCX CKR; experiment: Adhesion of HEK293-CCX CKR cells to immobilized ELC-stalkokine and competition by soluble chemokines; type: cell-based; settings: 5-10 ug/ml soluble recombinant chemokine as competitor
Text: “Stalkokine” technology was used to :identify the chemokines bound by the CCX CKR. Briefly, immobilized native chemokines alone are incapable of capturing cells bearing cognate receptors (Imai et al., 1997, Cell 91:521). We have developed non-native chemokine structures, stalkokines, comprising chemokine moieties engineered as N-terminal attachments to extended modified mucins (Bazan et al., 1997, Nature 385:640). In one embodiment, stalkokines, harvested in the supernatants of HEK293 cells after transient transfection, are anchored to solid substrates via antibodies against carrier domains (e.g. poly-His epitopes) engineered to the carboxyl terminus, leaving the chemokine domain free to interact with candidate orphan receptors.
To determine ligand binding to CCX CKR, HEK293-CCX CKR cells were used to interrogate chemokine ‘stalkokines’ (SK), i.e., molecules in which discrete chemokine domains were engineered to be tethered to the end of an extended stalk structure. […] In all cases, nonadherent cells were removed by washing in PBS; remaining adherent cells were fixed with 1% glutaraldehyde, photoimaged and counted. […]

CCX CKR [5] = target: T1, CCX CKR; experiment: Radioligand binding competition with Scatchard transformation (binding constants); settings: for Affinity class of CCX CKR ligands (summary of Examples 4-6): summary statement
Text: as §1, §2
The binding interactions identified in the primary screen were examined quantitatively by extensive radioligand binding competition to CCX CKR stable transfectants and Scatchard transformation of the displacement data (FIG. 4B). […] In each case, the murine versions of these chemokines also bound, and with even greater affinity; the apparent Kd's are listed in FIG. 4B. […] In similar experiments, murine CTACK bound the receptor with a Kd of ˜9 nM (not shown). CTACK is also referred to as CCL27, ALP, ILC, and ESkine.

CCX CKR [6] = target: T1, CCX CKR; experiment: Homologous competition binding of radiolabeled chemokine on HEK293-CCX CKR cells; settings: data not shown
Text: Furthermore ELC-SK mediated adhesion was abolished in the presence of soluble native ELC as a competitor (FIG. 3A, top row). […] Moreover, radiolabeled ELC was used in a traditional homologous competition assay in the presence of increasing concentrations of unlabeled ELC. […] Taken together, the stalkokine-based adhesion and radiolabeled ligand binding/homologous competition assays indicate that CCX CKR is a new chemokine receptor that bound a novel compliment of chemokines.

Molecule | Binding to CCX CKR by displacement of 125I-labeled ELC (CCX CKR [1]) | Internalization of the receptor (CCX CKR [2]) | Migration of CCX CKR transfectants in response to chemokine (CCX CKR [3]) | Effect of soluble chemokine on ELC-SK mediated adhesion of HEK293-CCX CKR cells (CCX CKR [4]) | Affinity class of CCX CKR ligands (summary of Examples 4-6) (CCX CKR [5]) | Homologous competition of radiolabeled TECK with cold TECK (CCX CKR [6]) | Affinity for CCX CKR in multipoint competition, in words (CCX CKR [5]; competition against 125I-ELC)
SLC: secondary lymphoid-tissue chemokine, recombinant (protein) SDGGAQDCCLKYSQRKIPAKVVRSYRKQEPSLGCSIPAILFLPRKRSQAELCADPKELWVQQLMQHLDKTPSPQKPAQGCRKDRGASKTGKKGKGSKGCKRTERSQTPKGP | bound well | Internalization of the receptor was observed | moderate migration | ablation of adhesion; also recorded: significant reduction | high affinity |  | 
murine CTACK: murine chemokine CTACK, also referred to as CCL27, ALP, ILC, and ESkine (protein) LPLPSSTSCCTQLYRQPLPSRLLRRIVHMELQEADGDCHLQAVVLHLARRSVCVHPQNRSLARWLERQGKRLQGTVPSLNLVLQKKMYSHPQQQN |  | Internalization of the receptor was observed |  |  | high affinity |  | 
TECK: thymus expressed chemokine, recombinant (protein) QGVFEDCCLAYHYPIGWAVLRRAWTYRIQEVSGSCNLPAAIFYLPKRHRKVCGNPKSREVQRAMKLLDARNKVFAKLHHNTQTFQAGPHAVKKLSSGNSKLSSSKFSNPISSSKRNVSLLISANSGL | bound well | Internalization of the receptor was observed |  | ablation of adhesion; also recorded: significant reduction | high affinity | Nearly identical results | 
mMIP-1gamma: murine chemokine MIP-1γ (CCF18) (protein) QITHATETKEVQSSLKAQQGLEIEMFHMGFQDSSDCCLSYNSRIQCSRFIGYFPTSGGCTRPGIIFISKRGFQVCANPSDRRVQRCIERLEQNSQPRTYKQ | moderately |  |  |  | lower affinity |  | 
vMIPII: virally-encoded chemokine from the human Kaposi's sarcoma herpesvirus HHV8 (protein) LGASWHRPDKCCLGYQKRPLPQVLLSSWYPTSQLCSKPGVIFLTKRGRQVCADKSKDWVKKLMQQLPVTAR | lower affinity |  |  |  | lower affinity |  | moderate to low affinity

From patent US6998239B1, “Method for identifying a modulator of the binding of CCX CKR polypeptide to a chemokine” (ChemoCentryx, Inc., priority 1999, dated 2006)
